In data set [1] the target is T1, hnRNP A18 (CIRP), full length, GST fusion (UniProt Q14011 Q14011:1-172).
T1 sequence: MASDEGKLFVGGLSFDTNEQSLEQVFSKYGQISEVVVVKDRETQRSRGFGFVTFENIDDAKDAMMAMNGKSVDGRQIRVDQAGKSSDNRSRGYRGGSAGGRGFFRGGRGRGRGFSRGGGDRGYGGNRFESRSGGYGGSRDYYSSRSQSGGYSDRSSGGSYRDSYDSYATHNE
In words: FP; 25 C, 30 min; binding competed by small molecules (compound 1 IC50 6.4 uM; compounds 5, 2, 3, 4 IC50 2.9, 15, 13, 39 uM); no Kd given. Conditions: tags: GST; label: 3' T-fluorescein (position 5 of thymine, 6-carbon spacer).

The target in data set [2] is T2, hnRNP A18 (CIRP), full length, His-tagged (UniProt Q14011 Q14011:1-172).
T2 sequence: T1 sequence
As to the kind of experiment: EMSA; 1 ug protein in 20 ul; competed by compounds 1-6. Conditions: tags: His; label: 3' biotin. The protocol: RNA band shifts were performed according to the manufacturer recommendations (LightShift Chemiluminescent RNA EMSA kit, Thermo Scientific, Rockford, Ill.). Briefly recombinant His-hnRNP A18 or His-hnRNP A1 (1 μg) were incubated with biotinylated RNA (hnRNP A18 motif 1, IRE 28 or 51 nucleotides) in 20 μl and run on native polyacrylamide gels transfer to nylon probes and hybridize with streptavidin HRP antibody.
For orientation: Mobility shift assays separate free from complexed probe on a gel.

B1: hnRNP A18 motif 1 fluorescein (ssRNA)
RNA: GCAGAUCCAGGGUGGGAUUUUCUUGAGGAAGUUACAAAUAAGCUUGUUACA
Take B1: the binding result in data set [1] was “binds”.

B2: hnRNP A18 motif 1 biotin (ssRNA)
RNA: B1 RNA
Take B2: the binding result in data set [2] is given as “binds”.
